Source: IntAct's records for PubMed 24510904

B1: Ras-related protein Rab-7L1 (Homo sapiens), O14966 (parent)
chain: MGSRDHLFKVLVVGDAAVGKTSLVQRYSQDSFSKHYKSTVGVDFALKVLQWSDYEIVRLQLWDIAGQERFTSMTRLYYRDASACVIMFDVTNATTFSNSQRWKQDLDSKLTLPNGEPVPCLLLANKCDLSPWAVSRDQIDRFSKENGFTGWTETSVKENKNINEAMRVLIEKMMRNSTEDIMSLSTQGDYINLQTKSSSWSCC
B2: BAG family molecular chaperone regulator 5 (Homo sapiens), Q9UL15 (parent)
chain: MDMGNQHPSISRLQEIQKEVKSVEQQVIGFSGLSDDKNYKKLERILTKQLFEIDSVDTEGKGDIQQARKRAAQETERLLKELEQNANHPHRIEIQNIFEEAQSLVREKIVPFYNGGNCVTDEFEEGIQDIILRLTHVKTGGKISLRKARYHTLTKICAVQEIIEDCMKKQPSLPLSEDAHPSVAKINFVMCEVNKARGVLIALLMGVNNNETCRHLSCVLSGLIADLDALDVCGRTEIRNYRREVVEDINKLLKYLDLEEEADTTKAFDLRQNHSILKIEKVLKRMREIKNELLQAQNPSELYLSSKTELQGLIGQLDEVSLEKNPCIREARRRAVIEVQTLITYIDLKEALEKRKLFACEEHPSHKAVWNVLGNLSEIQGEVLSFDGNRTDKNYIRLEELLTKQLLALDAVDPQGEEKCKAARKQAVRLAQNILSYLDLKSDEWEY

Variants of: B1
Settings: with lrrk2_human LRRK2, Q5S007
Sequence of lrrk2_human LRRK2, Q5S007 (Q5S007 whole entry): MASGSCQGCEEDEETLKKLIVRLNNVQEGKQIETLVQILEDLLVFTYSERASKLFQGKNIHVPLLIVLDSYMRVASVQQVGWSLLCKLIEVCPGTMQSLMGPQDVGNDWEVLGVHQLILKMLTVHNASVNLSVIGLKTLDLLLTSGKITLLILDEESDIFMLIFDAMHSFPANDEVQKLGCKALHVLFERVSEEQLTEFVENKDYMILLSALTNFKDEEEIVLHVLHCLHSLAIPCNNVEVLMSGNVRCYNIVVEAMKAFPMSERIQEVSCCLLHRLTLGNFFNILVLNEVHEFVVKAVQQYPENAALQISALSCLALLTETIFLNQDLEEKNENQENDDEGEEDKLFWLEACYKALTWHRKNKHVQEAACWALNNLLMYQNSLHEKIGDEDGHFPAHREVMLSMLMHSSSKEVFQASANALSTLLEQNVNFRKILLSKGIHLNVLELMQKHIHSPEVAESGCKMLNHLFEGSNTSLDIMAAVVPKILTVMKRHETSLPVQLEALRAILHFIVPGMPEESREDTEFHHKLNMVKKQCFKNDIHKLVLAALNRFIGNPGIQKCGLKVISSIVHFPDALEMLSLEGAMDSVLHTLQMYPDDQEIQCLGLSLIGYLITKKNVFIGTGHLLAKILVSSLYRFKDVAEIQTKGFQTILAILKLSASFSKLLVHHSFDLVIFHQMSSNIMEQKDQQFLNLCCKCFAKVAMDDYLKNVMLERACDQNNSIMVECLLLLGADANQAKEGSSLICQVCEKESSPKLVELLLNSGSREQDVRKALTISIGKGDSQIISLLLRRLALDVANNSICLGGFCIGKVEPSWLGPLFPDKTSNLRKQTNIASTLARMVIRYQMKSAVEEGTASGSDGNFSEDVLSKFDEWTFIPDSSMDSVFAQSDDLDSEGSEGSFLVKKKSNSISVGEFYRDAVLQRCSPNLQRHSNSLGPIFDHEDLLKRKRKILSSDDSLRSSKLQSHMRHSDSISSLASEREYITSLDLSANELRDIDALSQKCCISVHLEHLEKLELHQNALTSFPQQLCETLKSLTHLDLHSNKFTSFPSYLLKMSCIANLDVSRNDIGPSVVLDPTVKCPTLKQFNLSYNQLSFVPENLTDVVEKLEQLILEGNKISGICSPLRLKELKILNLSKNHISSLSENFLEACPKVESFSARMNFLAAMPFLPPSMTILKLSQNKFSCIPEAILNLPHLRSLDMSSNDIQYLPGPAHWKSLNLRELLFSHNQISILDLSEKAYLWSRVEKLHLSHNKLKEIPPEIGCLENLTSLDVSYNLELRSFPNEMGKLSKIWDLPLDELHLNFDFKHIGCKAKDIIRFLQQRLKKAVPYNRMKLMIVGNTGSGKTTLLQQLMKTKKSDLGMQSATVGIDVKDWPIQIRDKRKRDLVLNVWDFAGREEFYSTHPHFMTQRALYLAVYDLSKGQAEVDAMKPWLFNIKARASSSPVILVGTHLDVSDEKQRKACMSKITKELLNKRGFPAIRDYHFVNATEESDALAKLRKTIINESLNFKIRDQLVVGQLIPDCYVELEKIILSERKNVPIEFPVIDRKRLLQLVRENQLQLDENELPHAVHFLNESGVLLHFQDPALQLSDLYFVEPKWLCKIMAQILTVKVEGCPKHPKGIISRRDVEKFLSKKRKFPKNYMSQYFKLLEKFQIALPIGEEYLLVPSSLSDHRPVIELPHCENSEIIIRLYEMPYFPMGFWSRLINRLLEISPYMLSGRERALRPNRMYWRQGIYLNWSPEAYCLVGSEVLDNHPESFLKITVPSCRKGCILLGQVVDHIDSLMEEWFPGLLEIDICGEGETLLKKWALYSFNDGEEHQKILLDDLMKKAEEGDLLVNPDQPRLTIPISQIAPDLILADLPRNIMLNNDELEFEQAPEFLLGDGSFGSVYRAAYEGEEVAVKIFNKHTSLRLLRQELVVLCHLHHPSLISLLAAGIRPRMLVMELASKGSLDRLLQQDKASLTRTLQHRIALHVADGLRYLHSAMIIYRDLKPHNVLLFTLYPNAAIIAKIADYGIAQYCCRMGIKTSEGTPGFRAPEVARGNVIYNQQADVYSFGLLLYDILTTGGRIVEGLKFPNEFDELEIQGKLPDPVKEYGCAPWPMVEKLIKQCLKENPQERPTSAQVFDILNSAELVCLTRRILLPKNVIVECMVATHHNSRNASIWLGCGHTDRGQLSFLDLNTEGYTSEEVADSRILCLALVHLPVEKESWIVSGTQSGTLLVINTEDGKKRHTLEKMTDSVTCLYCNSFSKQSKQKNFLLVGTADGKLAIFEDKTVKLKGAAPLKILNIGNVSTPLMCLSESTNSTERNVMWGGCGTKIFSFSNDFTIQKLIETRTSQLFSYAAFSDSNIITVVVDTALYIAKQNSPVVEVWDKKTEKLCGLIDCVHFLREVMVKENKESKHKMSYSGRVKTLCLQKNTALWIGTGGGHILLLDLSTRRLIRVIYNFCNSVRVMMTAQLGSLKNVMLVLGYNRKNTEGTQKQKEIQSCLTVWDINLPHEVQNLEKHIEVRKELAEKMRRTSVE

effect of a mutation on the interaction | Variant
increasing interaction | MGSRDHLFKVLVVGDAAVGKNSLVQRYSQDSFSKHYKSTVGVDFALKVLQWSDYEIVRLQLWDIAGQERFTSMTRLYYRDASACVIMFDVTNATTFSNSQRWKQDLDSKLTLPNGEPVPCLLLANKCDLSPWAVSRDQIDRFSKENGFTGWTETSVKENKNINEAMRVLIEKMMRNSTEDIMSLSTQGDYINLQTKSSSWSCC [T21N]
increasing interaction | MGSRDHLFKVLVVGDAAVGKTSLVQRYSQDSFSKHYKSTVGVDFALKVLQWSDYEIVRLQLWDIAGLERFTSMTRLYYRDASACVIMFDVTNATTFSNSQRWKQDLDSKLTLPNGEPVPCLLLANKCDLSPWAVSRDQIDRFSKENGFTGWTETSVKENKNINEAMRVLIEKMMRNSTEDIMSLSTQGDYINLQTKSSSWSCC [Q67L]

Variants of: B1
Settings: with lrrk2_human LRRK2, Q5S007
Remark: another data set of the same source

effect of a mutation on the interaction | Variant
disrupting interaction | MGSRDHLFKVLVVGDAAVGKTSLVQRYSQDSFSKHYKSTVGVDFALKVLQWSDYEIVRLQLWDIAGLERFTSMTRLYYRDASACVIMFDVTNATTFSNSQRWKQDLDSKLTLPNGEPVPCLLLANKCDLSPWAVSRDQIDRFSKENGFTGWTETSVKENKNINEAMRVLIEKMMRNSTEDIMSLSTQGDYINLQTKSSSWSCC [Q67L]

Variants of: B2
Settings: with lrrk2_human LRRK2, Q5S007

effect of a mutation on the interaction | Variant
decreasing interaction | MDMGNQHPSISRLQEIQKEVKSVEQQVIGFSGLSDDKNYKKLERILTKQLFEIASVDTEGKGDIQQAAKRAAQETERLLKELEQNANHPHRIEIQNIFEEAQSLVREKIVPFYNGGNCVTDEFEEGIQDIILRLTHVKTGGKISLRKARYHTLTKICAVQEIIEDCMKKQPSLPLSEDAHPSVAKINFVMCEVNKARGVLIALLMGVNNNETCRHLSCVLSGLIADLAALDVCGRTEIRNYAREVVEDINKLLKYLDLEEEADTTKAFDLRQNHSILKIEKVLKRMREIKNELLQAQNPSELYLSSKTELQGLIGQLAEVSLEKNPCIREAARRAVIEVQTLITYIDLKEALEKRKLFACEEHPSHKAVWNVLGNLSEIQGEVLSFDGNRTDKNYIRLEELLTKQLLALAAVDPQGEEKCKAAAKQAVRLAQNILSYLDLKSDEWEY [D54A;R68A;D228A;R242A;D318A;R332A;D410A;R424A]
